{"source": "patent US20190359677A1", "about": "(published 2019)", "key": {"[1]": {"target": "T1, MCV trLT (truncated large T antigen of Merkel cell polyomavirus) peptide on HLA-A*02:01 (human)", "T1 peptide": "SMFDEVDEA", "experiment": "cytokine release"}, "[2]": {"target": "T2, MCV trLT and sT (large T and small T antigens of Merkel cell polyomavirus, shared exon 1) peptide on … (human)", "T2 peptide": "KLLEIAPNC", "experiment": "cytokine release"}}}
{"binder": "SMF-48 (TCR, V domains shown) Valpha: AQTVTQSQPEMSVQEAETVTLSCTYDTSESNYYLFWYKQPPSRQMILVIRQEAYKQQNATENRFSVNFQKAAKSFSLKISDSQLGDTAMYFCAFMKRGNRDDKIIFGKGTRLHILP Vbeta: GAVVSQHPSWVICKSGTSVKIECRSLDFQATTMFWYRQFPKQSLMLMATSNEGSKATYEQGVEKDKFLINHASLTLSTLTVTSAHPEDSSFYICSASPTSGRRTQYFGPGTRLTVL", "values": [{"measurement": "binding result", "setting": "[1]", "value": "recognises"}, {"measurement": "binding result", "setting": "[2]", "value": "no recognition"}]}
{"binder": "SMF-72 (TCR, V domains shown) Valpha: AQTVTQSQPEMSVQEAETVTLSCTYDTSESDYYLFWYKQPPSRQMILVIRQEAYKQQNATENRFSVNFQKAAKSFSLKISDSQLGDAAMYFCAYRGTSGTYKYIFGTGTRLKVLA Vbeta: DTGVSQDPRHKITKRGQNVTFRCDPISEHNRLYWYRQTLGQGPEFLTYFQNEAQLEKSRLLSDRFSAERPKGSFSTLEIQRTEQGDSAMYLCASSKLAGKNIQYFGAGTRLSVL", "values": [{"measurement": "binding result", "setting": "[1]", "value": "recognises"}, {"measurement": "binding result", "setting": "[2]", "value": "no recognition"}]}
{"binder": "KLL-85 (TCR, V domains shown) Valpha: GQQLNQSPQSMFIQEGEDVSMNCTSSSIFNTWLWYKQDPGEGPVLLIALYKAGELTSNGRLTAQFGITRKDSFLNISASIPSDVGIYFCAGQLNQGAQKLVFGQGTRLTINP Vbeta: DAGVIQSPRHEVTEMGQEVTLRCKPISGHNSLFWYRQTMMRGLELLIYFNNNVPIDDSGMPEDRFSAKMPNASFSTLKIQPSEPRDSAVYFCASSFYSADTQYFGPGTRLTVL", "values": [{"measurement": "binding result", "setting": "[2]", "value": "recognises"}]}
